Experiment [1] deals with human ENTPD2 engineered B16LM3 clone B5 tumor. Put plainly: Human ENTPD2 engineered B16LM3 clone B5 xenograft model, combination with A2AR antagonist NIR178. Format: in vivo. The following applies: NIR178 p.o. 4 days on and 3 days off at either 50 or 200 mg/kg with isotype control 10 mg/kg. How it is done: Human ENTPD2-engineered B16LM3 clone B5 was established in female C57BL/6 mice by subcutaneous injection of 0.5×10^6 cells into the right flank of each mouse. Once tumors reached approximately 50 mm^3, mice were randomized according to tumor volume into treatment groups (n=8 per group). Mice received an intravenous (i.v.) treatment of either anti-ENTPD2 mAb1 at a final dose of 10/mg/kg or a non-specific human IgG1 isotype control 10 mg/kg on day 1 of study. NIR178 was administered per os (p.o.) for 4 days on and 3 days off, starting at the beginning of study at either 50 mg/kg or 200 mg/kg. All doses were adjusted to individual mouse body weights. The study was carried out for thirteen days post treatment initiation and tumor volumes were assessed every other day to assess efficacy.
In general terms: A xenograft is tissue or cells of one species grown in another, often human tumour cells in immunodeficient mice.

The target of another experiment is T1, ENTPD2 (Homo sapiens, UniProt Q9Y5L3).
T1 sequence (Q9Y5L3 1-495): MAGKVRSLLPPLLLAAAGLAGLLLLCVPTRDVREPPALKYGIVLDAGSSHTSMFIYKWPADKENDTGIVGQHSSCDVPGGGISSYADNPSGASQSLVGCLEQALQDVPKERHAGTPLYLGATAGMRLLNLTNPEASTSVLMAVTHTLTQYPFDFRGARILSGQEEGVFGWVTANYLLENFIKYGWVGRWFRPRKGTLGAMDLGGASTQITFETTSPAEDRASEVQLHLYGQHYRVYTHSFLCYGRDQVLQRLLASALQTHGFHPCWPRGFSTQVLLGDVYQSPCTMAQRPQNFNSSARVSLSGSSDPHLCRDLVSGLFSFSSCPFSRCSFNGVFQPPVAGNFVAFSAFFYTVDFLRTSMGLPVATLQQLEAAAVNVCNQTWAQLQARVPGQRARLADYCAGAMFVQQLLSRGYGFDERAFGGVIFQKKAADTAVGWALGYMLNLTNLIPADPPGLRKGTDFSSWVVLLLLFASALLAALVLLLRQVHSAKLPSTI
Put plainly: Hybridoma mAb screen, cell-based assay for inhibition of ATP hydrolysis by ENTPD2. As to conditions: hybridoma-derived mAbs. An excerpt:
Hybridoma-derived mAbs were screened in a cell-based assay for inhibition of ATP hydrolysis by ENTPD2.

Experiment [2] concerns the target T2, recombinant human ENTPD2 (residues 29-462) (Homo sapiens, UniProt Q9Y5L3).
T2 construct: residues 29-462 of human or cyno ENTPD2 were cloned into expression vector; GP67 signal peptide (N); made in house; host or cells: High Five (Trichoplusia ni) insect cells, baculovirus
T2 sequence (Q9Y5L3 29-462): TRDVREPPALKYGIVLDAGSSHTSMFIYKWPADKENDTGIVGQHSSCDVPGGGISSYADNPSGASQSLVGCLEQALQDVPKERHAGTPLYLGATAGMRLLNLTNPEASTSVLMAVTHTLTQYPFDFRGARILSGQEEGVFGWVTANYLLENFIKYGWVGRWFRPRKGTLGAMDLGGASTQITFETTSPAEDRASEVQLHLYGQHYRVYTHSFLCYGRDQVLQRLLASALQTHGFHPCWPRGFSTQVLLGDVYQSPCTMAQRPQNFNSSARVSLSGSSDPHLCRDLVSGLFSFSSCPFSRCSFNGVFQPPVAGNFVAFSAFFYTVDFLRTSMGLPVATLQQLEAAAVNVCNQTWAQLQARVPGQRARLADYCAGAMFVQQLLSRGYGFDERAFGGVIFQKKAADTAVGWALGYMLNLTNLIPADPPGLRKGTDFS
Nature of the experiment: Biochemical human ENTPD2 functional assay (Transcreener ADP2 TR-FRET). The following applies: FIG. 15. An excerpt: Biochemical and cell-based functional assays were developed in-house to understand functional impact of anti-ENTPD2 Abs against purified extracellular domain of ENTPD2 (residues 29-462), as well as against the fully intact protein in the context of the native cell-based conformation. ENTPD2 hydrolyzes ATP to ADP, which can subsequently be detected using the HTRF Transcreener ADP2 TR-FRET Red Assay (BellBrook Labs, Madison, WI) where ENTPD2-produced ADP would compete with the ADP Tracer for binding to the anti-ADP-Tb antibody. The resulting signal is inversely proportional to the concentration of ADP in the sample. […]
HTRF signal (Emission at 620 nm and 665 nm) was assessed in both assays using the Envision plate reader in HTRF mode (Perkin Elmer, Waltham, MA). HTRF ratio was determined using the following formula: HTRF ratio=R=Emission at 665 nm/Emission at 620 nm×10,000. Subsequently % Residual Activity and % Inhibition were determined as follows:
Where R0% is the HTRF ratio of the negative control (0% enzyme activity), and R100% is the HTRF ratio of the positive control (100% enzyme activity). Data were analyzed in Microsoft Excel and graphed using GraphPad's Prism 7.0 software and IC50 values were obtained using non-linear regression, log (agonist) vs. response-variable slope (four parameters) analysis.
In general terms: Time-resolved FRET reads energy transfer from a long-lived donor to a nearby acceptor.

In the case of `Nc1nc(-n2cccn2)nc(-n2cccn2)c1Br` [NIR178, 5-bromo-2,6-di-(1H-pyrazol-1-yl)pyrimidine-4-amine], the “anti-tumor efficacy, non-specific isotype control and NIR178” value in experiment [1] was “No significant anti-tumor efficacy”.

B1: mAb17: hybridoma-derived lead inhibitory anti-human ENTPD2 mAb (antibody, V domains shown)
VH: EVQLQQFGAELVKPGASVKISCKASGYTFTDYNMDWVKQSHGKSLEWIGDINPKYDISTYNQQFKGKATLTVDKSSSTAYMELRSLTSEDTAVYYCARRGFFLYYGINYYYFDVWGAGTTVTVSS
VL: QIVLTQSPAIMSASLGEEITLTCSASSSVSYIHWYQQKSGTSPTLLIYSTSNLASGVPSRFSGSGSGTFYSLTISSVEAEDAADYYCHQWSSYPWTFGGGTKLEIK
B1: in the experiment with ENTPD2, the “inhibition of ATP hydrolysis by ENTPD2 (screen outcome)” value is “lead inhibitory”. The “inhibition of the catalytic activity of the recombinant human ENTPD2” value in experiment [2] is recorded as “potently inhibit”.

Source of the values: patent US11939397B2, “ENTPD2 antibodies, combination therapies, and methods of using the antibodies and combination therapies” (Novartis AG, priority 2018, dated 2024).
